A word on the stoichiometry N: it is the number of molecules, sites or subunits per partner or assembly.

The target of series [1] is OhrR (AZC_3555) of Azorhizobium caulinodans ORS571, 6×His-tagged recombinant protein (Azorhizobium caulinodans ORS571). Description: non-reducing SDS-PAGE; purified OhrR oxidised with 0.1 mM CuOOH for 10 min, then non-reducing SDS-PAGE; covalent dimer.
In series [2] the target is OhrR^C121S (Azorhizobium caulinodans ORS571). The description is as above.
A further series addresses T1, OhrR (Azorhizobium caulinodans ORS571, UniProt A8IEZ4 1-144).
T1 sequence: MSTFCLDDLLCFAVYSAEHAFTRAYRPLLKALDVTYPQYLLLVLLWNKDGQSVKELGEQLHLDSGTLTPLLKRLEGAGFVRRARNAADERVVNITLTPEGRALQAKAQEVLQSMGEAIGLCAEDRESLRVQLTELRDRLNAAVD
Description: EMSA; reduced (2.5 mM DTT in buffer); dose-dependent; 50 mM Tris-HCl pH 8.3, 0.25 M KCl, 2.5 mM DTT, 5 mM MgCl2, 0.05 ug/mL poly(dI-dC), 2.5 mM EDTA, 1% glycerol; 20 nM DNA, 20 uL, 20 min, room temperature; 6% native PAGE in 0.5x TBE. Particulars: protein: recombinant; tags: N-terminal 6xHis (pET-28a); chain copies: 2; label: none (GelRed stain). A general note: Mobility shift assays separate free from complexed probe on a gel.

Take “OhrR (AZC_3555) of Azorhizobium caulinodans ORS571, 6×His-tagged recombinant protein (natural protein)”: the stoichiometry N in series [1] was determined as 2.

The molecule OhrR^C121S (natural protein) came in with a stoichiometry N in series [2] of 2.

B1: ohr promoter probe (181 bp) (dsDNA)
DNA 1: CAAAGGGTTAGTTTTCCGTTGCGGAAGGTTGGGTGATGTTGACGGTGGTCTGCAAAATAAGTTTGACACAATCAAATTGTGTGCTACTTAAATGGCCATGGAAGCGGCTTGGCCGTTTCTCATCGATTTCTCAAGGCACGAGGATCAAGCGATGTCCGTCGATGTGAAGTACACCACCAAG
DNA 2: CTTGGTGGTGTACTTCACATCGACGGACATCGCTTGATCCTCGTGCCTTGAGAAATCGATGAGAAACGGCCAAGCCGCTTCCATGGCCATTTAAGTAGCACACAATTTGATTGTGTCAAACTTATTTTGCAGACCACCGTCAACATCACCCAACCTTCCGCAACGGAAAACTAACCCTTTG
With B1, the binding result with OhrR is given as “binds”.
